Results as given in patent US20260250363A1.

Experiments:
Settings in all cases: remark: other sources report otherwise
[1] = biological target: T1, SARS-CoV-2 C.37 Spike His Protein (R&D, Cat. #10887-CV) (SARS-CoV-2), P0DTC2; assay: competition ELISA: blocks biotin-ACE2 binding to coated spike
[2] = biological target: T2, SARS-CoV-2 AY.1 Spike Protein (R&D, Cat. #10922-CV) (SARS-CoV-2), P0DTC2; assay: direct ELISA on coated spike
[3] = biological target: T1, SARS-CoV-2 C.37 Spike His Protein (R&D, …); assay: direct ELISA on coated spike
[4] = biological target: T3, SARS-CoV-2 Spike Protein, wild type (R&D, Cat. #10549-CV) (SARS-CoV-2), P0DTC2; assay: direct ELISA on coated spike
[5] = biological target: T2, SARS-CoV-2 AY.1 Spike Protein (R&D, …); assay: competition ELISA: blocks biotin-ACE2 binding to coated spike
[6] = biological target: T1, SARS-CoV-2 C.37 Spike His Protein (R&D, …); assay: as above; remark: listed apart in the source
[7] = biological target: T3, SARS-CoV-2 Spike Protein, wild type …; assay: as above
[8] = biological target: T2, SARS-CoV-2 AY.1 Spike Protein (R&D, …); assay: BLI (ForteBio), mAb on AHC sensor, spike in solution
[9] = biological target: T1, SARS-CoV-2 C.37 Spike His Protein (R&D, …); assay: as above
[10] = biological target: T3, SARS-CoV-2 Spike Protein, wild type …; assay: as above
[11] = biological target: T3, SARS-CoV-2 Spike Protein, wild type …; assay: competition ELISA: blocks biotin-ACE2 binding to coated spike; remark: listed apart in the source
[12] = biological target: T2, SARS-CoV-2 AY.1 Spike Protein (R&D, …); assay: as above; remark: listed apart in the source

B1: Casirivimab (antibody)
chain 1: QVQLVESGGGLVKPGGSLRLSCAASGFTFSDYYMSWIRQAPGKGLEWVSYITYSGSTIYYADSVKGRFTISRDNAKSSLYLQMNSLRAEDTAVYYCARDRGTTMVPFDYWGQGTLVTVSS
chain 2: DIQMTQSPSSLSASVGDRVTITCQASQDITNYLNWYQQKPGKAPKLLIYAASNLETGVPSRFSGSGSGTDFTFTISGLQPEDIATYYCQQYDNLPLTFGGGTKVEIK
B1 was tested. Which IC50 [1] did it give?
The IC50 was 1.39 nM.

What about the EC50 [2] of the same binder?
Its EC50 is 0.041 nM.

And the EC50 [3]?
The EC50 was 0.0507 nM.

What about the EC50 [4] of the same binder?
Its EC50 is 0.0557 nM.

What about the IC50 [5] of the same binder?
Its IC50 is 0.646 nM.

What about the IC50 [6] of the same binder?
Its IC50 is 1.9 nM.

And the IC50 [7]?
Its IC50 is 3.73 nM.

And the Kd [8]?
Its Kd is 1.08 nM.

And the Kd [9]?
The Kd was 0.511 nM.

And the Kd [10]?
The Kd was 2.85 nM.

What about the IC50 [11] of the same binder?
The IC50 was 2.94 nM.

And the IC50 [12]?
Its IC50 is 0.341 nM.
